Assay results from patent US20230151095A1 (published 2023).
Substitutions are numbered along the chain they refer to.

T1: XENP23311 (His-tagged NKG2D-Fc) (human, UniProt P26718 78-216)
T1 chain: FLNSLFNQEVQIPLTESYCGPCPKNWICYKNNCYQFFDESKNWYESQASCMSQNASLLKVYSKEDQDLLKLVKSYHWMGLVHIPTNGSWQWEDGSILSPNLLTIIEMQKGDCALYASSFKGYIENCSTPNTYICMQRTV

T2: B7H3 (human, UniProt Q5ZPR3 29-466)
T2 chain: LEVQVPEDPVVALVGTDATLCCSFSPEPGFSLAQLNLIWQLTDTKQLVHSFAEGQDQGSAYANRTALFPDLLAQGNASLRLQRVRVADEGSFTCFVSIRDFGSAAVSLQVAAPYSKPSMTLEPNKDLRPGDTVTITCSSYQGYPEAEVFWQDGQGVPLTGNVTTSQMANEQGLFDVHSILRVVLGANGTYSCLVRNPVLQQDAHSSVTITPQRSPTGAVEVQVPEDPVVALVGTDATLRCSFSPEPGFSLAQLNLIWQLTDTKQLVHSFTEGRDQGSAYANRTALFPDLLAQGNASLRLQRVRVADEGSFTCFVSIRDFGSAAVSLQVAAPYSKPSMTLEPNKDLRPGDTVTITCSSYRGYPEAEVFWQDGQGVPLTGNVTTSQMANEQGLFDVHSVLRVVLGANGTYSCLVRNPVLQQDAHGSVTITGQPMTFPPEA

B1: XENP42653 (bispecific antibody)
heavy: EVQLLESGGGLVQPGGSLRLSCAVSGFSLSSYGVIWVRQAPGKGLEYVSWVSSGGSTNYASSVKGRFTISRDTSKNTVYLQMNSLRAEDTAVYFCARGATNSGTDIWGPGTLVTVSSASTKGPSVFPLAPSSKSTSGGTAALGCLVKDYFPEPVTVSWNSGALTSGVHTFPAVLQSSGLYSLSSVVTVPSSSLGTQTYICNVNHKPSDTKVDKKVEPKSCDKTHTCPPCPAPELLGGPSVFLFPPKPKDTLMISRTPEVTCVVVDVSHEDPEVKFNWYVDGVEVHNAKTKPREEEYNSTYRVVSVLTVLHQDWLNGKEYKCKVSNKALPAPIEKTISKAKGQPREPQVYTLPPSREEMTKNQVSLTCDVSGFYPSDIAVEWESDGQPENNYKTTPPVLDSDGSFFLYSKLTVDKSRWEQGDVFSCSVMHEALHNHYTQKSLSLSPGK
chain: not shown
light: DIVMTQSPSSLSASVGDRVTITCRASQSINSWLSWYQQKPGKPPKLLIYGASNLASGVPSRFKGSGSGTDFTLTISSLQPEDFATYYCQNNYGIIAAGATFGGGTKVEIKRTVAAPSVFIFPPSDEQLKSGTASVVCLLNNFYPREAKVQWKVDNALQSGNSQESVTEQDSKDSTYSLSSTLTLSKADYEKHKVYACEVTHQGLSSPVTKSFNRGEC
B2: XENP40375_H1L1 (antibody)
chain 1: B1 heavy
chain 2: not shown
chain 3: B1 light
B3: XENP42655 (bispecific antibody)
heavy: B1 heavy
chain: not shown
light: B1 light
B4: XENP42652 (bispecific antibody)
heavy: B1 heavy
chain: not shown
light: B1 light
B5: XENP42654 (bispecific antibody)
heavy: B1 heavy
chain: not shown
light: B1 light
B6: 2E4A3_H1.22_L1 (antibody, V domains shown)
VH: QVQLVQSGAEVKKPGASVKVSCKASGYIFTNNYMHWVRQAPGQGLEWMGIISPSVGRTAYAQKFQGRVTMTRDTSTSTVYMELSSLRSEDTAVYYCARGGGSSPRLDYWGQGTLVTVSS
VL: not shown
B7: 38E2_H2_L1.1 (antibody, V domains shown)
VH: EVQLLESGGGLVQPGGSLRLSCAVSGFSLSSYGVIWVRQAPGKGLEYVSWVSSGGSTNYASSVKGRFTISRDTSKNTVYLQMNSLRAEDTAVYFCARGATNSGTDIWGPGTLVTVSS
VL: DIVMTQSPSSLSASVGDRVTITCRASQSINSWLSWYQQKPGKPPKLLIYGASNLASGVPSRFKGSGSGTDFTLTISSLQPEDFATYYCQNNYGIIAAGATFGGGTKVEIK
B8: XENP38093 (1D2B4, Bivalent) (antibody, V domains shown)
VH: EVQLLESGGGLVQPGGSLRLSCAASGFTFSSFGMSWVRQAPGKGLEWVSTISGSGSTTYYADSVKGRFTISRDNSKNTLYLQMNSLRAEDTAVYYCAKGVFSEWHYYFDYWGQGTLVTVSS
VL: not shown
B9: XENP38098 (LB_1002, Bivalent) (antibody, V domains shown)
VH: EVQLVESGGGLVKPGGSLRLSCAASGFTFSSYSMNWVRQAPGKGLEWVSSISSSSSYIYYADSVKGRFTISRDNAKNSLYLQMNSLRAEDTAVYYCARGAPMGAAAGWFDPWGQGTLVTVSS
VL: DIQMTQSPSSVSASVGDRVTITCRASQGISSWLAWYQQKPGKAPKLLIYAASSLQSGVPSRFSGSGSGTDFTLTISSLQPEDFATYYCQQGVSFPRTFGGGTKVEIKR
B10: XENP38097 (LB_1001, Bivalent) (antibody, V domains shown)
VH: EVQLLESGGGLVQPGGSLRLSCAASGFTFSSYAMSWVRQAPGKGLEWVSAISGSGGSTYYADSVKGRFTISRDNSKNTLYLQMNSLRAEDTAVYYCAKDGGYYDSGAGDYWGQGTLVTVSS
VL: B9 VL with S30D, F94Y
B11: XENP41036 (antibody)
chain 1: B1 heavy with I332E
chain 2: EVQLLESGGGLVQPGGSLRLSCAVSGFSLSSYGVIWVRQAPGKGLEYVSWVSSGGSTNYASSVKGRFTISRDTSKNTVYLQMNSLRAEDTAVYFCARGATNSGTDIWGPGTLVTVSSGKPGSGKPGSGKPGSGKPGSDIVMTQSPSSLSASVGDRVTITCRASQSINSWLSWYQQKPGKPPKLLIYGASNLASGVPSRFKGSGSGTDFTLTISSLQPEDFATYYCQNNYGIIAAGATFGGGTKVEIKEPKSSDKTHTCPPCPAPELLGGPDVFLFPPKPKDTLMISRTPEVTCVVVDVSHEDPEVKFNWYVDGVEVHNAKTKPREEQYNSTYRVVSVLTVLHQDWLNGKEYKCKVSNKALPAPIEKTISKAKGQPREPQVYTLPPSREQMTKNQVKLTCLVKGFYPSDIAVEWESNGQPENNYKTTPPVLDSDGSFFLYSKLTVDKSRWQQGNVFSCSVMHEALHNHYTQKSLSLSPGK
chain 3: B1 light
B12: XENP41034 (antibody)
chain 1: B1 heavy with I332E
chain 2: B11 chain 2 with I364E
chain 3: B1 light
B13: XENP41021 (antibody)
chain 1: B1 heavy
chain 2: not shown
chain 3: B1 light
B14: XENP41024 (antibody)
chain 1: B1 heavy with I332E
chain 2: B11 chain 2 with D271S, I364E
chain 3: B1 light
B15: XENP41032 (antibody)
chain 1: B1 heavy with S239D, I332E
chain 2: B11 chain 2 with D271S, I364E
chain 3: B1 light
B16: XENP41033 (antibody)
chain 1: B1 heavy with S239D
chain 2: B11 chain 2 with I364E
chain 3: B1 light
B17: XENP41029 (antibody)
chain 1: B1 heavy with S239D
chain 2: not shown
chain 3: B1 light
B18: XENP41026 (antibody)
chain 1: B1 heavy
chain 2: B11 chain 2
chain 3: B1 light
B19: XENP41023 (antibody)
chain 1: B1 heavy with S239D
chain 2: B11 chain 2
chain 3: B1 light
B20: XENP41031 (antibody)
chain 1: B1 heavy with S239D, I332E
chain 2: B11 chain 2
chain 3: B1 light

Target: T1, XENP23311 (His-tagged NKG2D-Fc)
Assay: Biacore; steady state
Work on B1 yielded a Kd of 5410 nM. Work on B2 yielded a Kd of 19 nM. Work on B3 yielded a Kd of 1490 nM. B4 was tested, and the Kd was 162 nM. In the case of B5, the Kd is reported as 190 nM.

Target: T2, B7H3
Assay: -; monovalent, 1+1 bispecific format
With B6 the Kd was 6.1 nM. For B7, the Kd was 0.5 nM.

Target: T1, XENP23311 (His-tagged NKG2D-Fc)
Assay: Biacore; 1:1 Langmuir
B1 was tested, and the Kd was 14800 nM. In the case of B2, the Kd is reported as 15.5 nM. B3 showed a Kd of 4190 nM. Work on B4 yielded a Kd of 253 nM. B5 was tested, and the Kd was 360 nM.

Target: T1, XENP23311 (His-tagged NKG2D-Fc)
Assay: Octet; bivalent format
Binder B8 has a Kd of 0.52 nM. With B9 the Kd was 0.49 nM. B10 was tested, and the Kd was 0.42 nM.

Each binder was assayed against CD16 (UniProt P08637 17-208) (assay: not given).
Sequence of CD16 (P08637 17-208): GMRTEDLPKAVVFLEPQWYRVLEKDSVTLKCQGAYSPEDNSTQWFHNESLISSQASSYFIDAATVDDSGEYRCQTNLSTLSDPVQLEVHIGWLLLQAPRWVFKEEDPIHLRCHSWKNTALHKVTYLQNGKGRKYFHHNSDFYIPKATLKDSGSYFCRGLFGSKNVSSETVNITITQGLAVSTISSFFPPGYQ
B11 was tested, and the Kd was 104 nM. With B12 the Kd was 64.6 nM. B13 gave a Kd of 417 nM. For B14, the Kd was 120 nM. B15 gave a Kd of 60.2 nM. B16 was tested, and the Kd was 59.9 nM. In the case of B17, the Kd is reported as 229 nM. Work on B18 yielded a Kd of 219 nM. Binder B19 has a Kd of 102 nM. For B20, the Kd was 55.2 nM.
